The series is described as follows: label from the status in PepcDB records.
Turning to “MSTCTLRFKNDWLKIFTCPVPSSDFLSFVGVATIDAPQHAVLSLLYDIESATEWVWKTREMRVLQELADDNEGRVVYQVVSAPWPVSDREIISRSTAYKDPETGEVFIKIESLPDFIPETSNCVRVRKLEGAWNILPLSENSCRVVFRLHIEPAGEIPSWLANIAVIDTPYHTLNNMRDMVKREKYKNPLEHHHHHH”, the protein production entry was “failed”.
To “MSTDEERIYSIALTQIPGVGHIGAKRLVDGMGSATDVFRYRTELPDRLPGVNRAVVAALDSPQALKRAEQEYEFARNNRISCFTLADEDYPSRLRECDDAPVVLFFKGKANLNALHIINMVGTRNATDYGKHICVSFLQELQMLCPDVLVVSGLAYGIDINAHRSALSVELPTVGVLAHGLDRIYPSLHRKTAIDMLRQGGLLTEFLSGTNPDKHNFISRNRIVAGISDATIVVESAAKGGSLITADIAGSYHRDCFAFPGRVTDEYSKGCNQLIQDNKAVLLESASDFVKTMGWDSDLKSVKPETVQRNLFPDLSAEELRIVDILGKLGDLQINALMVQADIPINKISAILFELEMKGVIRVLAGGVYQLLR” belongs “failed”; to “MSTDLAEQPFKFDDVFMQYYPCIYNFIRWLIQDEDCAQDLAQETFLRAFVNLGTRSEHNLSPWLHTIARNLCHDYWRKNKRRGGRELLLQDAFECEDESSKPLAAIENKETAKQIYKILNLLKSEQRTALLLREIEGLSYDDAARVMGISVSAYTSLLNRARNKFIKLIMTPYTKINKGLFTPKEYTVLYRWFGIDAWPEDPEQEIVHKAKHYFDNSALSFDEFRNSLYPFHLDQAILNRVLNKDPQIIGDFGSGTGQFTLKAASSVNLEKTYAFDISPKMVDFSQQRFKREGLRHIQCLPADLNSIPLESETLDIGYCLVVLHHLYDPGKAIKEMTRTLKPGGQLIIGDFGSHNYNLFTKNNKDLWSGFSPDQMTKWFNEAGLENIDIREEKDCIFKSTTQAGELVKIPLLMSSGIKRA”, “failed”.
To “MSTDSDTTPDTEEAREQLIDLAADFYDQFADGEVPTMTIPTRTKSNIVFDEDEQVWVYGDRNSTRSAKTISGAEKILKAVYTIDFLSQQLEEDRSSTLRELYYLSESWDLDEAQFNTQDESNNLIEDLEIVSDVKREDFHMRPEESGAKVMGPLLLREQTNRGDREIHCQDDVGQGGYQIPNNPDTIEFLDNDAKFVLCVETGGMRDRLVENGFDDEYDALVVHLGGQPARATRRLIKRLHDELDLPVTVFTDGDPWSYRIFGSVSYGSIKSAHLSEYLATPEAQFIGIRPEDIVEYELPTDPLSDSDVNALESELEDPRFQTDFWEEQIELQLDINKKAEQQALASRGLDFVTETYLPERLDEMGIL” belongs “failed”; to “MSTDSIVKASNWRLVEVGRVVLIKKGQSAGKLAAIVEIIDQKKVLIDGPKAGVPRQAINLGQVVLTPLTFALPRGARTATVSKKWAAAAVCEKWAASSWAKKIAQRERRAALTDFERFQVMVLRKQKRYTVKKALAKA”, “failed”; to “MSTDSPLRTTASTCCYCGVGCGVLIEHDGERILGVQGDPRHPANFGRLCSKGASLHLTGDLQARALYPQLRLGKQLARARSDWESALEHAAGRFAETIREHGPDSVAFYISGQLLTEDYYAFNKLARALVGTNNIDSNSRLCMSSAVVGYKRSLGADAPPCSYEDLDCADCVLIAGSNMAFAHPVLFRRLEAAKAARPEMRIVVIDPRRTDTCELADLHLALLPGTDVALFHGILHILLWEDWIDRSFIAEHTEGFADLKELVRDYTPAAVADICGIDRADLQRCAEWIGRSPRFLSLWCMGLNQSSAGSAKNSALINLHLATGKIGRAGCGPFSLTGQPNAMGGRETGSLANLLPGHREAADPGHRAEVAHYWGVEQLPTSPGLSAIELFDAVHDGRIKALWIACTNPAQSLPDQRKIHEALARCPFVVVQEAFAGTETCQYADLLLPAASWGEKEGSVTNSERRISHVRRAVPPPGEARQDWNIVCDFARRLEGHLRPAKPGLFAFADSRSLFDEYKLLTAGRDLDLSGLSYALLDRLGPQQWPFPTGAEQGTARLYADGRFPTASGRAQLVAEPYRAAQEKRDARYPLTLNTGRLRDQWHGMSRTGTCARLFGHEEEALVHLHPEELRRRQLLDGQLVRLKSRRGALVLPVSADDSVRPGQAFLPMHWGDRFLKGLGCNVLTLPAFDPLSKQPELKHAGVQVESVELPWRLFALVETDIQARFEALRALCEVFDHASFSLAGRERPALLVSAAHHEAPGADLLERIDRQLELLDGPILAYDDPRRAIGKRVRLEDGRIVAVRLAGETLARDWLKELWLTGRADSELRRWLLAPLGAAPGRPSQGAGGKTLCSCQNVSQQTVLGGIARGLDLDGLKREFGCGTGCGSCVPEIKRLLAAP”, “failed”.
With “MSTDVSSAENEGGATVRTARVPKYYRLKKHLLDMTRTQTPGTPVPPERTLAAEFDTSRTTVRQALQELVVEGRLERIQGKGTFVAKPKVSQALQLTSYTEDMRAQGLEPTSQLLDIGYITADDRLAGLLDITAGGRVLRIERLRMANGEPMAIETTHLSAKRFPALRRSLVKYTSLYTALAEVYDVHLAEAEETIETSLATPREAGLLGTDVGLPMLMLSRHSQDRTGQPVEWVRSVYRGDRYKFVARLKRPQD”, the protein production entry is on record as “not failed”.
Under “MSTEDALCFTGEEYARHVREYWRGVAESDGFDSEDIRSPVVLTGLFHYDCQSGRRYPDPLLVKRYALLGLHRFNILQGTSFELDALQKFNKTMNLTSSYYITLLANEPGAIPLQKTFQVRVDERKYDTLDLTVAIARLKKDQNEAAETTKEPFVPHFCCSAVSDGVFQGPLPDWPSDDALRHDRNRFYELEKSEWQATDWISLYLELLILATDRGMFGVAQTGLPQVQILKVVIETEEENEKPLDKRLNARRAHVYITFTGLPKSPRLVEIGEHVERKAIIRRVIDDSGYLTLLGKFWSGKDTEQRSKTRQSEEKVESSQKRSRLC” stands “failed”; under “MSTIFDIRNLRLPQLSRASVVIGSLVVVLALAAGIVGVRLYQKLTNNTVVAYFTQANALYVGDKVQIMGLPVGSIDKIEPAGDKMKVTFHYQNKYKVPANASAVILNPTLVASRNIQLEPPYRGGPVLADNAVIPVERTQVPTEWDELRDSVSHIIDELGPTPEQPKGPFGEVIEAFADGLAGKGKQINTTLNSLSQALNALNEGRGDFFAVVRSLALFVNALHQDDQQFVALNKNLAEFTDRLTHSDADLSNAIQQFDSLLAVARPFFAKNREVLTHDVNNLATVTTTLLQPDPLDGLETVLHIFPTLAANINQLYHPTHGGVVSLSAFTNFANPMEFICSSIQAGSRLGYQESAELCAQYLAPVLDAIKFNYFPFGLNVASTASTLPKEIAYSEPRLQPPNGYKDTTVPGIWVPDTPLSHRNTQPGWVVAPGMQGVQVGPITQGLLTPESLAELMGGPDIAPPSSGLQTPPGPPNAYDEYPVLPPIGLQAPQVPIPPPPPGPDVIPGPVPPTPAPVGAPLPAEAGGGQ”, “failed”.
To “MSTKELLFSFHGRIDRKTYWIWNVIYYISIIGFGAGISKLFPAFSYLLLPIFLLVLLIPDLAITTKRWHDRDKSIYWLGLNIPLVIGRIATPMTSPMAQEPSTPQLFIASISLICGLWILIECGFLKGTSGPNKYGPEPQ” belongs “not failed”; to “MSTLRATETHRASQSAWEVFLVFLRLGLTSFGGPVAHLGYFRDAFVTRRRWLTEHAYSDIVALCQFLPGPASSQVGMVVGLSRAGYPGALAAWVGFTLPSAIALILFALGLSHYGNLVPPSALHGLKVAAVAVVAQAVWGMARSLCPDAPRITLMILAAVAVTLIPSPWCQVGVMVVAGMVGAQRFRTAQVPPHEPLSIPVGHGAAIGFLLLFAGLLAGLPVVASLIPNHALALVDAFYRAGALVFGGGHVVLPLLQATVVPTGWVNNDTFLAGYGAAQAVPGPLFTFAAFLGAAGGPAPTGWIGGIVCLLAIFAPSFLLVFGALPFWERLRRHAGTRAALAGVNAAVVGLLLSALYQPVWTSAIHAPADFALALLALAALTVWRVPPWAVVTGCALAGWGMHVGGVA”, “failed”.
Under “MSTMTATSGRAKRPQKPITLVGVDVYVITEDGIPKFDEYGPFKIEFISNRGTKVWPGYVSPDLMLVNWYRCRFTATRPVTDKDVDAFVGELGKKHLWSAVQKLWNYGDEAGFSKAY” stands “failed”; under “MSTPAPEQMLSAWQVGIAALLILVNGALSIGLGLGLERRLAWAAVRTVVQLLLIGFVLQWVFASAHWAVVLAVIALMTLIAGHATGSRGARDYAGLRLDGTLSVFGSTWLIGAIGLVAVLQARPWYTPQYAIPIMGMILGNTLTGVGLALERMTGELIATRDQVETLLALGGTRWEAARNAARAAVRAGMTPIINQMSVVGVVSLPGMMTGQVLAGQSPLEAVRYQIVIMFLLAASSGLGTVAAVLLAYRRLFSREHQLLSARIVQRAPGVH”, “failed”; under “MSTTDNAFSATLEPIDTPKTTLKQRWWHIMDNWKVGIVPLPLFLLAGGLIALDCLGGKLPSDIVVMVATLAFFGFACGEFGKRLPVLGKLGAAAICATFIPSALVHYGLLPDVVIESTTKFYKSTNILYLYICCIIVGSIMSMNRTTLIQGFLKIFFPMLCGEVVGMLVGIGVGTLLGMEPFQVFFFIVLPIMAGGVGEGAIPLSMGYAALMHMEQGVALGRVLPMVMLGSLTAIVISGCLNQLGKRFPHLTGEGQLMPNRSHETRSLSESEGVSGKTDVGTLASGALLAVLLYMMGMLGHKLIGLPAPVGMLFLAVLLKLANVVSPRLQEGSQMVYKFFRTAVTYPILFAVGVAITPWQELVNAFTLTNLLVIVSTVSALVATGFLVGKKIGMHPIDVAIVSCCQSGQGGTGDVAILTAGNRMSLMPFAQIATRIGGAINVSLGLLFLSHYLA”, “failed”.
On to “MSTTGKNTTAAATDTVTERPPVFSVDGLWKVFGPKAARVPADPDLTALSPAELRSRTGCTAAVADVSFDVRKGEVFVVMGLSGSGKSTLVRCLTRLIEPTAGSIVIDGEDVRAMDRSRLRELRRHRAAMVFQHFGLLPHRTVLDNVAYGLEVQGMGRAERRERAAAIVAKVGLEGLEQRRPGQLSGGQRQRVGLARALAVDPEVLLFDEPFSALDPLIRRDMQEEVVRLHREEGRTMVFITHDLQEALKLGDRIALMRDGRVVQLGTPEEIVGSPADDYVREFVRDVPREQVLTVRTAMRPAANADEAGTGPAIRPEATVSEAIEAVARAGSAARVMSDGRCLGVVDAADLLSVVAGTAAAGSRAAGAARVGAAATGERREPTDPRPATTEEPV”, for which the protein production result is on record as “failed”.
To “MSTTLLRTIQLNQFSLLGTSLLRRRRSNNFSVRSCGSQTTTTHEAKQSSPTRVAPKNHKSNQLDEILRDYEAVIGIETHVQLSTLTKAFCSCSNNYGSYPNTSICPVCMGLPGALPVLNSKVVEFGVRLGLALNCDLSLKSKFDRKQYFYPDLPKGYQISQFDIPIASGGYVDVDIPLEFGGGHRRFGITRVHMEEDAGKLLHSDTGDYSQVDLNRAGVPLLEIVSEPDMRSGIEAAEYACEMQRIARYLGVSNGNMQEGSLRCDVNISIRPIGQAEFGTKVEIKNLNAFSAISRAIDFEISRQALLYNQGKADQIVTETRLWEEGAQKTVTMRKKEGLADYRYFPEPDLPEVILTQEYVDSIRASLPELPEAKRRRYEAMGLGMQDVLFLANDVSVAEYFDAVIGKGAEVKLAANWIMSDIAAYLKNEKLSINDIKLTPQELAELIAAIKDGTISGKIGKEILFELLAKGGTVKGMIKAKDLVQITDPAEIEKMVIQVVSENPKQLEQYRSGKTKLQGYFAGQVMKMSKGKANPGLLNKILLEKLNAKD” belongs “failed”; to “MSTVAFHTLGCKVNHYETEAIWQLFKQGGYERTEYEKKADVYVINTCTVTNTGDKKSRQVIRRAVRQNPDAVICVTGCYAQTSPAEIMAIPGVDIVVGTQDREKMLGYIEEFRKERQPINAVRNIMKTRVYEELDVPYFTDRTRASLKIQEGCNNFCTFCIIPWARGLMRSRDGKEVIKQAQQLVDAGYKEIVLTGIHTGGYGEDIKDYNLAGLLRDMEAEVGGLKRLRISSIEASQISDEVIEVLDKSEVVVRHLHIPLQSGSNTVLKRMRRKYTMEFFQERLDRLKEALPGLAITSDVIVGFPGETEEEFMETYNFIKENRFSELHVFPYSKRTGTPAARMEDQVPEDVKNDRVHRLIELSNQLAKEYASQFEGEVLEIIPEEQFKEGDREGLYVGYTDNYLKIVFEGSEELIGKLVKVKITKAGYPYNEAQFVRVLEDDVKKESASALEHHHHHH”, “failed”.

The record behind these values is a protein production outcome set (Wang et al. 2014).
